Reference: the MegaScale stability set (Tsuboyama et al. 2023)

B1: r11_951_TrROS_Hall (parent)
chain: KKKYVIKVYFEDTGKEVEIEAESKEEALEAAKRLAEELGLKIKKVEIYP

Variants of: B1
Assay: folding stability dG (cDNA display proteolysis); higher = more stable
Settings: PBS, room temperature

| Variant | folding stability dG [kcal/mol] |
| --- | --- |
| KKKYVIKVYFEDTGTEVEIEAESKEEALEAAKRLAEELGLKIKKVEIYP [K15T] | 4.5 |
| KKKYVIKVYFEDTGQEVEIEAESKEEALEAAKRLAEELGLKIKKVEIYP [K15Q] | 4.27 |
| KKKYVIKVYFEDTGEEVEIEAESKEEALEAAKRLAEELGLKIKKVEIYP [K15E] | 4.35 |
| KKKYVIKVYFEDTGYEVEIEAESKEEALEAAKRLAEELGLKIKKVEIYP [K15Y] | 4.52 |
| KKKYVIKVYFEDTGDEVEIEAESKEEALEAAKRLAEELGLKIKKVEIYP [K15D] | 4.17 |
| KKKYVIRVYFEDTGKEVEIEAESKEEALEAAKRLAEELGLKIKKVEIYP [K7R] | 4.64 |
| KKKYVILVYFEDTGKEVEIEAESKEEALEAAKRLAEELGLKIKKVEIYP [K7L] | 4.09 |
| KKKYVIDVYFEDTGKEVEIEAESKEEALEAAKRLAEELGLKIKKVEIYP [K7D] | 2.75 |
| KKKYVIGVYFEDTGKEVEIEAESKEEALEAAKRLAEELGLKIKKVEIYP [K7G] | 3.32 |
| KKKYVIKVYFEDTGKEVEITAESKEEALEAAKRLAEELGLKIKKVEIYP [E20T] | 4.4 |
| KKKYVIKVYFEDTGKEVEIEAESKEEALEAAKRLAEELGLKIKKVEIYG [P49G] | 4.49 |
| KKKYVIKVYFEDTGKEVEIEAESKEEALEAAKRLAEELGLKIKKVEIYA [P49A] | 4.33 |
| KKKYVIKVYFEDTGKEVIIEAESKEEALEAAKRLAEELGLKIKKVEIYP [E18I] | 4.61 |
| KKKPVIKVYFEDTGKEVEIEAESKEEALEAAKRLAEELGLKIKKVEIYP [Y4P] | 2.44 |
| KKKYNIKVYFEDTGKEVEIEAESKEEALEAAKRLAEELGLKIKKVEIYP [V5N] | 4.12 |
| KKKYVIKVYFEDTGKEVEIEACSKEEALEAAKRLAEELGLKIKKVEIYP [E22C] | 4.52 |
| KKKYVIKVYFEDTGKEVEIEAKSKEEALEAAKRLAEELGLKIKKVEIYP [E22K] | 4.05 |
| KKKYVIKVYFEDTGKEKEIEAESKEEALEAAKRLAEELGLKIKKVEIYP [V17K] | 4.07 |
| KKKYVVKVYFEDTGKEVEIEAESKEEALEAAKRLAEELGLKIKKVEIYP [I6V] | 4.06 |
| KKKYVIKVYFEDTGKEVEIEAESKEEALEAAKRLAEELGLKIIKVEIYP [K43I] | 4.43 |
| KKKYVIKVYFEDTNKEVEIEAESKEEALEAAKRLAEELGLKIKKVEIYP [G14N] | 4.43 |
| KKKYVIKVYFEDTEKEVEIEAESKEEALEAAKRLAEELGLKIKKVEIYP [G14E] | 4.3 |
| KKKYVIKVYFEDTSKEVEIEAESKEEALEAAKRLAEELGLKIKKVEIYP [G14S] | 4.66 |
| KKKYVIKVHFEDTGKEVEIEAESKEEALEAAKRLAEELGLKIKKVEIYP [Y9H] | 4.26 |
| KKKYVIKVYFEDTGKEVEIEAESKEEALEAAKRLAEELGLKIKMVEIYP [K44M] | 4.31 |
| KKKYVIKVYFEDTGKEVEIEAESKEEALEAAKRLAEELGLKIKVVEIYP [K44V] | 4.17 |
| KKKYVIKVYFEDTGKEVEIEAESKEEALEAAKRLAEELGLKIKSVEIYP [K44S] | 4.42 |

| Variant | folding stability dG [kcal/mol] |
| --- | --- |
| KKKYVIKVYFEDTGKEVEIEAESKEEALEAAKRLAEELGLKIKDVEIYP [K44D] | 3.95 |
| KKKYVIKVYFEDTGKEVEIEAESKEEALEAAKRLAEELGLKIKNVEIYP [K44N] | 4.41 |
| KKKYVIKVYFEDTGKEVEIEAESKEEVLEAAKRLAEELGLKIKKVEIYP [A27V] | 4.38 |
| KKKYVIKVYFEDTGKEVEIEAESKEEILEAAKRLAEELGLKIKKVEIYP [A27I] | 4.09 |
| KKKYVIKVYFEDTGKEVEIEAESKEEWLEAAKRLAEELGLKIKKVEIYP [A27W] | 3.93 |
| KKKYVIKVYFEDTGKEVEIEAESKEEFLEAAKRLAEELGLKIKKVEIYP [A27F] | 3.8 |
| KKKYVIKVYFEDTGKEVEIEAESKEERLEAAKRLAEELGLKIKKVEIYP [A27R] | 1.78 |
| KKKYVIKVYFEDTGKEVEIEAESKEEALEAAKRLAEELGLKMKKVEIYP [I42M] | 3.99 |
| KKKYVIKVYFEDTGKEVEIEAESKEEALEAAKRLAEELGLKRKKVEIYP [I42R] | 2.53 |
| KKKYVIKVYFEDTGKEVEIEAESKEWALEAAKRLAEELGLKIKKVEIYP [E26W] | 4.92 |
| KKKYVIKVYFEDTGKEVEIEAESKEEALEAAKRLAEELGLKIKKVEDYP [I47D] | 3.99 |
| KKKYVIKVYFEDTGKEVEIEAESKEEALEAAKRLAEELGLKIKKVEEYP [I47E] | 4.33 |
| KKKYVIKVYFEDTGKEVEIEAESKEEALEAAKRLAEELGLKIKKVEMYP [I47M] | 4.53 |
| KKKYVIKVYFEDTGKEVEIEAESKEEALEAAKRLAEELGLKIKKVEVYP [I47V] | 4.33 |
| KKKYVIKVYFEDTGKEVEIEAESKCEALEAAKRLAEELGLKIKKVEIYP [E25C] | 4.28 |
| KKKYVIKVYFEDTGKEVEIEAESKFEALEAAKRLAEELGLKIKKVEIYP [E25F] | 4.34 |
| KKKYVIKVYFEDTGKEVEIEAESKMEALEAAKRLAEELGLKIKKVEIYP [E25M] | 4.32 |
| KWKYVIKVYFEDTGKEVEIEAESKEEALEAAKRLAEELGLKIKKVEIYP [K2W] | 4.66 |
| KKKYVIKVYFEDTGKEVEIEAESMEEALEAAKRLAEELGLKIKKVEIYP [K24M] | 4.46 |
| KKKYVIKVYFEDTGKEVEIEAESLEEALEAAKRLAEELGLKIKKVEIYP [K24L] | 4.48 |
| KKKYVIKVYFEDTGKEVEIEAESCEEALEAAKRLAEELGLKIKKVEIYP [K24C] | 4.53 |
| KKKYVIKVYFEDTGKEVEIEAESAEEALEAAKRLAEELGLKIKKVEIYP [K24A] | 4.55 |
| KKKYVIKVYFEDTGKEVEIEAESIEEALEAAKRLAEELGLKIKKVEIYP [K24I] | 4.52 |
| KKKYVIKVYQEDTGKEVEIEAESKEEALEAAKRLAEELGLKIKKVEIYP [F10Q] | 2.23 |
| KKKYVIKVYREDTGKEVEIEAESKEEALEAAKRLAEELGLKIKKVEIYP [F10R] | 1.98 |
| KKKYVIKVYTEDTGKEVEIEAESKEEALEAAKRLAEELGLKIKKVEIYP [F10T] | 3.32 |
